In patent publication US20170314054A1 (ROCHE SEQUENCING SOLUTIONS, published 2017):
No end group written: not given here.

B1: DFALQ (SEQ ID NO: 7) (peptide)
peptide: DFALQ
B2: RGTKL (SEQ ID NO: 60) (peptide)
peptide: RGTKL
modifications: also: flanked by G:S (3:1) linkers on peptide array
B3: DYFLQ (SEQ ID NO: 8) (peptide)
peptide: DYFLQ
B4: RSKSK (SEQ ID NO: 62) (peptide)
peptide: RSKSK
modifications: not fully specified
B5: TKSKL (SEQ ID NO: 56) (peptide)
peptide: TKSKL
modifications: not fully specified
B6: KLSKL (SEQ ID NO: 57) (peptide)
peptide: KLSKL
modifications: also: flanked by G:S (3:1) linkers on peptide array
B7: KSKLA (SEQ ID NO: 55) (peptide)
peptide: KSKLA
modifications: also: flanked by G:S (3:1) linkers on peptide array
B8: SKSKL (SEQ ID NO: 63) (peptide)
peptide: SKSKL
modifications: not fully specified
B9: RGSKL (SEQ ID NO: 59) (peptide)
peptide: RGSKL
modifications: also: flanked by G:S (3:1) linkers on peptide array
B10: FTKSK (SEQ ID NO: 64) (peptide)
peptide: FTKSK
modifications: also: flanked by G:S (3:1) linkers on peptide array
B11: FPKLK (SEQ ID NO: 61) (peptide)
peptide: FPKLK
modifications: also: flanked by G:S (3:1) linkers on peptide array
B12: PKTKL (SEQ ID NO: 66) (peptide)
peptide: PKTKL
modifications: also: flanked by G:S (3:1) linkers on peptide array
B13: RSKLG (SEQ ID NO: 58) (peptide)
peptide: RSKLG
modifications: not fully specified
B14: ARSKL (SEQ ID NO: 54) (peptide)
peptide: ARSKL
B15: RSKLA (SEQ ID NO: 68) (peptide)
peptide: RSKLA
modifications: not fully specified
B16: KLKYK (SEQ ID NO: 65) (peptide)
peptide: KLKYK
modifications: also: flanked by G:S (3:1) linkers on peptide array
B17: RLKSK (SEQ ID NO: 67) (peptide)
peptide: RLKSK
modifications: also: flanked by G:S (3:1) linkers on peptide array
B18: PYALQ (SEQ ID NO: 5) (peptide)
peptide: PYALQ
modifications: also: flanked by G:S (3:1) linkers on peptide array
B19: NYFLQ (SEQ ID NO: 9) (peptide)
peptide: NYFLQ
modifications: also: flanked by G:S (3:1) linkers on peptide array
B20: EYVLQ (SEQ ID NO: 6) (peptide)
peptide: EYVLQ
modifications: not fully specified; also: flanked by G:S (3:1) linkers on peptide array

Experiments:
[1] = molecular target: T1, microbial transglutaminase from Streptomyces mobaraensis (MTG) (Streptomyces mobaraensis, UniProt P81453 77-407); assay: cell-based or functional assay
T1 sequence (looked up): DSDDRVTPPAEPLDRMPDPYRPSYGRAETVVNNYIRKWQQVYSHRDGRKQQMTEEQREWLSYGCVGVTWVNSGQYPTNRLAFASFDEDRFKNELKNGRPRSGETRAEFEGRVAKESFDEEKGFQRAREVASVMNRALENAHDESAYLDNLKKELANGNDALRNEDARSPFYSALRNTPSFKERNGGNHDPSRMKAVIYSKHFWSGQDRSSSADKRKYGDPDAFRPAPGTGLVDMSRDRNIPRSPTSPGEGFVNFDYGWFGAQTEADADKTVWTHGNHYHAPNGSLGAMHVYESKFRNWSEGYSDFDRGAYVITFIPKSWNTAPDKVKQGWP

[2] = molecular target: T1, microbial transglutaminase from …; assay: cell-based or functional assay; remark: listed apart in the source

Binder | Log2(signal), array MTG labeling with N-(Biotinyl)cadaverine [1] | A (array MTG labeling signal with Z-Gln-Gly-CAD-biotin) [2]
B1 | 15.4 Log2(signal) | 
B2 |  | 13.4
B3 | 15.4 Log2(signal) | 
B4 |  | 13.4
B5 |  | 13.4
B6 |  | 13.4
B7 |  | 13.4
B8 |  | 13.4
B9 |  | 13.4
B10 |  | 13.4
B11 |  | 13.4
B12 |  | 13.3
B13 |  | 13.4
B14 |  | 13.4
B15 |  | 13.3
B16 |  | 13.4
B17 |  | 13.3
B18 | 15.4 Log2(signal) | 
B19 | 15.4 Log2(signal) | 
B20 | 15.4 Log2(signal) | 
